The values that follow come from paper PMC10248883 (The Journal of Biological Chemistry, 2023).

Test [1] has as its target NLuc–CLR–RAMP3 receptor (AM2R) in COS-7 membranes (human) (UniProt Q16602). The test is described as follows: FRET or BRET. (Bioluminescence resonance energy transfer reports proximity on the nanometre scale.)
The target in test [2] is RAMP3–CLR ECD. Conditions: read-out: KI, equilibrium affinity; purified RAMP3–CLR ECD complex; ref [31]; cited from earlier work.
In test [3] the target is RAMP2–CLR ECD. To be noted: read-out: KI, equilibrium affinity; purified RAMP2–CLR ECD complex; ref [31]; cited from earlier work.

In general, Kd refers to the constant that tells how readily two partners part at equilibrium. A word on the Ki: it is a measure of affinity in units of concentration, obtained from inhibition or displacement.

Sequence of NLuc–CLR–RAMP3 receptor (AM2R) in COS-7 membranes (human) (Q16602 23-461, chain 1 of 2): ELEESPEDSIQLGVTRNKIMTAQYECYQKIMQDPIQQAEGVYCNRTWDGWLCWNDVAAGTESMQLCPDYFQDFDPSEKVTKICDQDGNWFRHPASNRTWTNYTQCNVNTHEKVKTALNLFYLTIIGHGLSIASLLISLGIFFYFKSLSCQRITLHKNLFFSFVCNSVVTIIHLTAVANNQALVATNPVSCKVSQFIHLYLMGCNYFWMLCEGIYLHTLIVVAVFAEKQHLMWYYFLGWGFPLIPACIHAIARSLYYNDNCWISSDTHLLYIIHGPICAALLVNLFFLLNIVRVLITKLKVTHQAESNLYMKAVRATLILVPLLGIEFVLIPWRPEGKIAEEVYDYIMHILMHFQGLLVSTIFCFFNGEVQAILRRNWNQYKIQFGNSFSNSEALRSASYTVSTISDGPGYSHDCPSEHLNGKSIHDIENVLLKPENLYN
Sequence of NLuc–CLR–RAMP3 receptor (AM2R) in COS-7 membranes (human) (O60896 24-148, chain 2 of 2, further chain): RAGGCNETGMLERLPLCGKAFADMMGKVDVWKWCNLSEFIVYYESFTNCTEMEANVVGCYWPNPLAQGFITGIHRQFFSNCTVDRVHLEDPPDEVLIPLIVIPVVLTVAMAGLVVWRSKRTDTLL

On to AM2/IMD–TAMRA (peptide), for which, in test [1], the Kd came out at 7 nM, the half-life (t1/2) from the off-rate of the association kinetics was found to be 41 min, the half-life of the fast component of dissociation was 7 min and the half-life of the slow component of dissociation came to 76 min.

In the case of “AM2/IMD: Synthetic human peptide AM2/IMD(1–47) purchased from Bachem”, the Ki in test [2] is ~2000 nM; in test [3] it was ~14 µM.

In the case of AM–TAMRA (peptide), in test [1], the Kd came out at 26 nM, the half-life (t1/2) from the off-rate of the association kinetics worked out at 2.6 min, the half-life of the fast component of dissociation was found to be 0.75 min and the half-life of the slow component of dissociation came to 6.9 min.
